In PMC7190724, “Improved GPCR ligands from nanobody tethering” (Nature Communications, 2020):

Molecular target: PTHR1_(YFPΔECD)

VHHGFP-PTH(1-9)
cAMP response (cAMP-activated luciferase luminescence) at the highest concentration tested, 100 nM, against the maximal response observed; precise EC50 could not be obtained (% of the maximal response): 40
